Here are results for 11 sequences from article PMC12990809.

Holding throughout (assay): pulldown
Data set [1] deals with T1, DDB_G0286331 (Dictyostelium discoideum) (UniProt Q54M41).
T1 sequence: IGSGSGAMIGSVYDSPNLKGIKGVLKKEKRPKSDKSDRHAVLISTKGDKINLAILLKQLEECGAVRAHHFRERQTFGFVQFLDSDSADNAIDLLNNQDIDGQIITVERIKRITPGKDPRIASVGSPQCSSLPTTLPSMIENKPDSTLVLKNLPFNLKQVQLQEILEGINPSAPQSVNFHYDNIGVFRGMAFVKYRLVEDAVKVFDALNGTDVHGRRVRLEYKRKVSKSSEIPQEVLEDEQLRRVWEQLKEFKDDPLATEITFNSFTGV
The following applies: 20 nM protein, 1.5 uM RNA pool; 20 mM HEPES pH 7.8, 70 mM KCl, 10 mM NaCl, 10% glycerol, 2 mM DTT, 0.1 ug/uL BSA; 30 min, 4 C.

Another data set addresses hnrnpa0l (Danio rerio) (UniProt A0ACM8Q088). The following applies: 20 nM protein, 1.5 uM RNA pool; 20 mM HEPES pH 7.8, 70 mM KCl, 10 mM NaCl, 10% glycerol, 2 mM DTT, 0.1 ug/uL BSA; 30 min, 4 C.
In data set [2] the target is T2, CBG14639 (Caenorhabditis briggsae) (UniProt A8XKC4).
T2 sequence: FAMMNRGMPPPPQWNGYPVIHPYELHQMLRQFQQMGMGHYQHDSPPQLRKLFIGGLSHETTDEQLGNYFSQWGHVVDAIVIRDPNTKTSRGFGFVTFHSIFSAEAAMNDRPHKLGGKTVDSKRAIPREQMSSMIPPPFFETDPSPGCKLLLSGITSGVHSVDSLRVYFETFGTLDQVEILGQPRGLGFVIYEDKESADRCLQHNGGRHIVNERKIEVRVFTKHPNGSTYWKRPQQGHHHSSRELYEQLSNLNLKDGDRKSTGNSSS
The following applies: 20 nM protein, 1.5 uM RNA pool; 20 mM HEPES pH 7.8, 70 mM KCl, 10 mM NaCl, 10% glycerol, 2 mM DTT, 0.1 ug/uL BSA; 30 min, 4 C.

The target of data set [3] is T3, PK14112.1 (Cannabis sativa) (UniProt A0A7J6DPE0).
T3 sequence: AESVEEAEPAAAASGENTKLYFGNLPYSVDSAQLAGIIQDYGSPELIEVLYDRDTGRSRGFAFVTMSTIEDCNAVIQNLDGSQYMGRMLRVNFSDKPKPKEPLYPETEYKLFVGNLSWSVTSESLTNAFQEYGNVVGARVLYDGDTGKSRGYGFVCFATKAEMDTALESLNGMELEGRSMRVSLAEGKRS
The following applies: 20 nM protein, 1.5 uM RNA pool; 20 mM HEPES pH 7.8, 70 mM KCl, 10 mM NaCl, 10% glycerol, 2 mM DTT, 0.1 ug/uL BSA; 30 min, 4 C.

Data set [4] concerns the target T4, PK26404.1 L183S (Cannabis sativa) (UniProt A0A7J6ELY7).
T4 sequence: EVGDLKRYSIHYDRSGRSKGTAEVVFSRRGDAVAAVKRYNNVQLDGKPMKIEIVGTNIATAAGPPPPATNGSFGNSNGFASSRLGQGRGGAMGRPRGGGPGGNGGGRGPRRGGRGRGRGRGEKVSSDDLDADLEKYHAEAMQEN
The following applies: 20 nM protein, 1.5 uM RNA pool; 20 mM HEPES pH 7.8, 70 mM KCl, 10 mM NaCl, 10% glycerol, 2 mM DTT, 0.1 ug/uL BSA; 30 min, 4 C.

Data set [5] has as its target T5, rsp-2 (Caenorhabditis elegans) (UniProt Q23120).
T5 sequence: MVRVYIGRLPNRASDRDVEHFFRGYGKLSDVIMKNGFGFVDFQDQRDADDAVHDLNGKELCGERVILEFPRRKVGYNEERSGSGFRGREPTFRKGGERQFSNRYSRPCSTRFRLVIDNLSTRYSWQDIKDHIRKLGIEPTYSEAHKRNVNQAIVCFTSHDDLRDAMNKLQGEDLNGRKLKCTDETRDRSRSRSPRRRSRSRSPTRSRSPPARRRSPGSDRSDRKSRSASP
The following applies: 20 nM protein, 1.5 uM RNA pool; 20 mM HEPES pH 7.8, 70 mM KCl, 10 mM NaCl, 10% glycerol, 2 mM DTT, 0.1 ug/uL BSA; 30 min, 4 C.

In data set [6] the target is T6, CBG04067 ins404_V (Caenorhabditis briggsae) (UniProt Q6E3D5).
T6 sequence: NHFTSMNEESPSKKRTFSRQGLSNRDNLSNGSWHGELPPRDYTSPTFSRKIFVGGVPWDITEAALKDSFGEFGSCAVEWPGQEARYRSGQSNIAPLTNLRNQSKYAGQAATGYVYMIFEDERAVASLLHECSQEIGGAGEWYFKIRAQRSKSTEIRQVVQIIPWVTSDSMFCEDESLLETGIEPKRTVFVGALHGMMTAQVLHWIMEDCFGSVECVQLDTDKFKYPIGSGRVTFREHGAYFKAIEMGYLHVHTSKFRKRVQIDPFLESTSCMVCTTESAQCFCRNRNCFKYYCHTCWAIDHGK
The note with it: 20 nM protein, 1.5 uM RNA pool; 20 mM HEPES pH 7.8, 70 mM KCl, 10 mM NaCl, 10% glycerol, 2 mM DTT, 0.1 ug/uL BSA; 30 min, 4 C.

For a further data set, the target named is HNRNPA1L2 (Homo sapiens) (UniProt Q32P51). The note with it: 20 nM protein, 1.5 uM RNA pool; 20 mM HEPES pH 7.8, 70 mM KCl, 10 mM NaCl, 10% glycerol, 2 mM DTT, 0.1 ug/uL BSA; 30 min, 4 C (protocol of this paper; not …); cited from earlier work.
The target in the next data set is HNRNPA1 (Homo sapiens) (UniProt P09651). The following applies: 20 nM protein, 1.5 uM RNA pool; 20 mM HEPES pH 7.8, 70 mM KCl, 10 mM NaCl, 10% glycerol, 2 mM DTT, 0.1 ug/uL BSA; 30 min, 4 C (protocol of this paper; not …); cited from earlier work.
Data set [7] has as its target T7, PK15181.1 (Cannabis sativa) (UniProt A0A7J6E558).
T7 sequence: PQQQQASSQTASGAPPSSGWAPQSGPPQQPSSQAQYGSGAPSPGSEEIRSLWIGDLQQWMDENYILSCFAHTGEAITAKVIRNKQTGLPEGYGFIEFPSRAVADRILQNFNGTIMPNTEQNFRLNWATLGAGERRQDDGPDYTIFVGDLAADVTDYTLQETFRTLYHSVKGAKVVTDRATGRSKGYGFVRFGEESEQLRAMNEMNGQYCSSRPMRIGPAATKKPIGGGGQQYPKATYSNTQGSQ
The following applies: 20 nM protein, 1.5 uM RNA pool; 20 mM HEPES pH 7.8, 70 mM KCl, 10 mM NaCl, 10% glycerol, 2 mM DTT, 0.1 ug/uL BSA; 30 min, 4 C.

Data set [8] concerns the target T8, PK22404.1 A169L;A170F;T171A;T450P (Cannabis sativa) (UniProt A0A803PFA7).
T8 sequence: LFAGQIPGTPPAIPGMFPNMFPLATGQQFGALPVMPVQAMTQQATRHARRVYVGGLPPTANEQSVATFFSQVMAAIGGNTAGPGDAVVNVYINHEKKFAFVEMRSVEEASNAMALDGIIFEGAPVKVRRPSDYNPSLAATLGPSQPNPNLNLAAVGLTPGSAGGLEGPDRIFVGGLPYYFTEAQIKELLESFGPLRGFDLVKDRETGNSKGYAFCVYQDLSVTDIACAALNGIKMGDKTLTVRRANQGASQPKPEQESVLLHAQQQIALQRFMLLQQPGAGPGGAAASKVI
The following applies: 20 nM protein, 1.5 uM RNA pool; 20 mM HEPES pH 7.8, 70 mM KCl, 10 mM NaCl, 10% glycerol, 2 mM DTT, 0.1 ug/uL BSA; 30 min, 4 C.

Chain of HNRNPA1L2 (Homo sapiens) (Q32P51 1-226): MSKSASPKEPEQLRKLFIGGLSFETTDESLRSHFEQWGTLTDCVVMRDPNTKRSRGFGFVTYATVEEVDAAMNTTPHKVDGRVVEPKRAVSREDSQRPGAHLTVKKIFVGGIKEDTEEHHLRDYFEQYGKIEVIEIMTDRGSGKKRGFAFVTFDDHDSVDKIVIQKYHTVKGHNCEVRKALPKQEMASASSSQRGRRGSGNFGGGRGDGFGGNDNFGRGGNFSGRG
Chain of hnrnpa0l (Danio rerio) (A0ACM8Q088 entry or part of it): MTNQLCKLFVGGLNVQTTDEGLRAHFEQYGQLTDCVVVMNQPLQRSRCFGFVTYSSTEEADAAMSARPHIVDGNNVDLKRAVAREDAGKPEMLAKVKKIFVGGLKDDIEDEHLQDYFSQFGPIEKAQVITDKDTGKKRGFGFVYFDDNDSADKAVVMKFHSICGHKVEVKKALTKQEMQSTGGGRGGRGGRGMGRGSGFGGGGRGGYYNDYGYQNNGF
Chain of HNRNPA1 (Homo sapiens) (P09651 1-226): as the sequence (Q32P51 1-226) above, with A5E, T74A, T75R, K171N, P182S, R197S, D208G counted along it

AUAAAC [RNAcompete motif RNCMPT00351] displayed a binding signal (z-score (mean of top ten 7-mers)) in data set [1] of 8.36.

Sequence AUAGGA [RNAcompete motif RNCMPT00340] gave a binding signal (z-score (mean of top ten 7-mers)) in the data set with hnrnpa0l (Danio rerio) of 10.9.

Take AUUAGG [RNAcompete motif RNCMPT00331]: the binding signal (z-score (mean of top ten 7-mers)) in data set [2] was 8.86.

As to GAUACUG [RNAcompete motif RNCMPT00392], the binding signal (z-score (mean of top ten 7-mers)) in data set [3] is 8.21.

GCGCGC [RNAcompete motif RNCMPT00364] showed a binding signal (z-score (mean of top ten 7-mers)) in data set [4] of 6.8.

GGAGGAG [RNAcompete motif RNCMPT00352] showed a binding signal (z-score (mean of top ten 7-mers)) in [5] of 9.21.

The sequence GUUUUA [RNAcompete motif RNCMPT00341] yielded a binding signal (z-score (mean of top ten 7-mers)) in data set [6] of 9.44.

Turning to UAGGG [RNAcompete motif RNCMPT00023], the binding signal (z-score (mean of top ten 7-mers)) with HNRNPA1L2 (Homo sapiens) was 7.23.

In the case of UAGGGA [RNAcompete motif RNCMPT00022], the binding signal (z-score (mean of top ten 7-mers)) in the data set with HNRNPA1 (Homo sapiens) was 10.

UUUUUU [RNAcompete motif RNCMPT00345]: in data set [7], the binding signal (z-score (mean of top ten 7-mers)) was 9.71.

Turning to UUUUUUG [RNAcompete motif RNCMPT00343], the binding signal (z-score (mean of top ten 7-mers)) in data set [8] came to 13.5.
